Assay results reported in US20160024207A1 (University of Texas, published 2016).
Blank lines part the entries; values can stand above or below the molecule they belong to.

Assays:
[1] = biological target: human EpCAM expressed on human carcinoma cells (PC3, MCF7) (human) (UniProt P16422); assay: NIR flow cytometry, IRDye 800CW-labeled isotype control mAb on PC3 cells
[2] = biological target: recombinant human (rhu) EpCAM/Fc (960-EP, R&D Systems) (human) (UniProt P16422); assay: flow cytometry of E. coli displaying scFv (APEx), EpCAM-Fc then fluorescent secondary antibody
[3] = biological target: human EpCAM expressed on human carcinoma cells (PC3, MCF7) (human) (UniProt P16422); assay: flow cytometry on MCF7 cells, mAb concentration 6.4 ng/ml, fluorescently labeled secondary antibody, 10,000 cells
[4] = biological target: human EpCAM expressed on human carcinoma cells (PC3, MCF7) (human) (UniProt P16422); assay: flow cytometry on MCF7 cells, mAb concentration 32 ng/ml, fluorescently labeled secondary antibody, 10,000 cells
[5] = biological target: human EpCAM expressed on human carcinoma cells (PC3, MCF7) (human) (UniProt P16422); assay: flow cytometry on MCF7 cells, mAb concentration 160 ng/ml, fluorescently labeled secondary antibody, 10,000 cells
[6] = biological target: T1, recombinant human (rhu) EpCAM/Fc (960-EP, R&D Systems) (human, UniProt P16422 24-265); assay: SPR (Biacore T100), EpCAM/Fc captured on anti-human IgG Fc chip, Fab as analyte, 25 C
T1 construct: Bought fusion protein; not shown: Fc part
T1 sequence (looked up): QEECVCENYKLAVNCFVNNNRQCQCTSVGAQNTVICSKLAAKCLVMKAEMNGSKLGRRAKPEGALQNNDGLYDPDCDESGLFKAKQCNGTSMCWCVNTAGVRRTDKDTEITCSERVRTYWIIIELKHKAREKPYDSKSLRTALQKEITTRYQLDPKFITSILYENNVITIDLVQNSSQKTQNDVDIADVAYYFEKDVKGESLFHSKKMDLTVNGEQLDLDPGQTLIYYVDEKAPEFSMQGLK
Procedure: (§1) In order to discriminate between monovalent and multivalent interactions on quantitative SPR measurements of KD, the binding affinities of the Fab fragments of mAbs were measured using SPR and a Biacore T100 instrument (GE Healthcare). Two flow cells of a CM5 chip were coated with goat anti-human IgG (Fc-specific) (Jackson ImmunoResearch) to approximately 8000 resonance units (RU) with an NHS/EDC Amine Coupling Kit BR-1000-50 (GE Healthcare). All measurements were made at 25° C. using HBS-EP+(10 mM HEPES, 150 mM NaCl, 3 mM EDTA, 0.05% v/v Tween 20, pH 7.4) as running buffer. EpCAM/Fc ligand (R&D Systems) was diluted in HBS-EP+ to 0.5 μg/ml and applied to the coated chip surface. Fab fragments were then tested at five different molar concentrations starting at 50 nM after performing a two-fold dilution series. Flow cells were regenerated with 100 mM phosphoric acid. All samples were applied in duplicate.

[7] = biological target: T1, recombinant human (rhu) EpCAM/Fc …; assay: SPR (Biacore T100), EpCAM/Fc captured, Fab as analyte; Fab fragment, not IgG
Procedure: as §1

[8] = biological target: T1, recombinant human (rhu) EpCAM/Fc …; assay: SPR, ratio of Fab KD values, reference mAb 9601 Fab
Procedure: as §1

[9] = biological target: T1, recombinant human (rhu) EpCAM/Fc …; assay: Biacore kinetic analysis of scFv
[10] = biological target: T2, murine EpCAM on mouse 4T1 mammary carcinoma cells (mouse, UniProt Q99JW5 24-315); assay: flow cytometry on mouse 4T1 cells, PE-labeled anti-mouse IgG
T2 construct: whole, on cells; also called mouse EpCAM
T2 sequence (looked up): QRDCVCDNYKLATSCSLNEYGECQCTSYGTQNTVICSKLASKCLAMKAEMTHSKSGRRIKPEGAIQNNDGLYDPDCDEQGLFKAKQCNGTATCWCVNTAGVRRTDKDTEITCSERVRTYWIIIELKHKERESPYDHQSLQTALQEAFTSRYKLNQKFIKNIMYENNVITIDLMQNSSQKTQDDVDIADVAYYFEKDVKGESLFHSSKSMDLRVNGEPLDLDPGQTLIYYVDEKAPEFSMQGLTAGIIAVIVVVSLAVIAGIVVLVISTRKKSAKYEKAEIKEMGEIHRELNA
Procedure: To determine whether mAbs specific for human EpCAM cross-react with murine EpCAM, the human cell line MCF7 (as described above) and 4T1 cells (mouse mammary carcinoma, CRL2539™, ATCC) were used. Hybridoma cells were grown and mAbs purified as above-described. Rat anti-mouse EpCAM, mAb G8.8 (Developmental Studies Hybridoma Bank, University of Iowa, Iowa City, Iowa) was utilized as a positive control for detection of EpCAM on the surface of 4T1 cells. Following incubation (20 min, on ice) with mAb, cells were washed with PBS-BSA and either DyLIGHT-488 conjugated donkey anti-rat IgG (Jackson ImmunoResearch) or PE-conjugated donkey F(ab′) 2 anti-mouse IgG (Jackson ImmunoResearch) was added at 5 μg per sample and incubated for an additional 20 min for detecting cells bound by rat anti-mouse or mouse anti-human EpCAM mAb, respectively. Cells were washed again with PBS-BSA and fixed in 2% paraformaldehyde prior to analyzing (10,000 events) on a BD FACSCalibur Flow Cytometer (BD Biosciences) using WinMDI2.9 software.

[11] = biological target: T3, human EpCAM expressed on human carcinoma cells (PC3, MCF7) (human, UniProt P16422 24-314); assay: flow cytometry on PC3 cells, 5 µg/ml mAb, PE-labeled anti-mouse IgG
T3 construct: whole, on cells; also called native EpCAM; surface expressed EpCAM
T3 sequence (looked up): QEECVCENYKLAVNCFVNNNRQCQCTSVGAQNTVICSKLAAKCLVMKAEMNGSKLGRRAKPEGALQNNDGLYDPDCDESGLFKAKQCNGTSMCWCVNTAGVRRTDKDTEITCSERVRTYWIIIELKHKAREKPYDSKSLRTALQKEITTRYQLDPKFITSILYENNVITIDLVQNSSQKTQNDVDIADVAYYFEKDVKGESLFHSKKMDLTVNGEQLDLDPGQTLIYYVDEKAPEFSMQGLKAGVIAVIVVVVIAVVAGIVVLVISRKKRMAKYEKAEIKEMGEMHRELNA
Procedure: PC3 cells (human prostate adenocarcinoma line, CRL1435™, ATCC, Manassas, Va.), grown to 80%-100% confluency in DMEM with 10% FBS, were treated with Trypsin-EDTA and resuspended in PBS containing 2% bovine serum albumin (BSA). One million cells per well were labeled with 5 μg/ml of mAb in a 200-μl volume and incubated on ice for 20 min. After washing with PBS-BSA, phycoerythrin (PE)-conjugated donkey F(ab′)2 anti-mouse IgG (Jackson ImmunoResearch, West Grove, Pa.) at 5 μg per sample was added for an additional 20-min incubation. Cells were washed again with PBS-BSA and fixed in 2% paraformaldehyde prior to analyzing (10,000 events) on a BD FACSCalibur Flow Cytometer (BD Biosciences, San Jose, Calif.). Analyses of mean fluorescence intensities (MFI) were performed using WinMDI2.9 software.

[12] = biological target: recombinant human (rhu) EpCAM/Fc (960-EP, R&D Systems) (human) (UniProt P16422); assay: Biacore kinetic analysis of scFv
[13] = biological target: human EpCAM expressed on human carcinoma cells (PC3, MCF7) (human) (UniProt P16422); assay: flow cytometry on PC3 cells, scFv then fluorophore-conjugated secondary antibody

Biological Activity, % (percentage of PC3 cells stained) [1]: 3.2%
MFI [1]: 125 MFI units
Molecule: in-house IgG1 isotype control mAb 69 (antibody)

binding result [10]: no binding
MFI fold increase relative to PE-conjugated secondary antibody alone [11]: 4.8 fold
B3: anti-EpCAM monoclonal antibody 153 (antibody, V domains shown)
VH: QVQLQQSGAELVKPGTSVKLSCKASGYNFTSYWINWVKLRPGQGLEWIGDIYPGSGNSHYNEKFKSKATLTVDTSSSTAYMQLSSLASGDSALYYCARNYYGSSPFPMDYWGQGTSVTVSS
VL: DIVMTQSPSSLIVTAGEKVTMSCKSSQSLLNSGNQKNYLTWYQQKPGQPPKLLIYWASTRESGVPDRFTGSGSGTDFTLTLNSAQAEDLAVYYCQNDYTYPLTFGAGTKLEIK
notes: In-house mouse IgG1 from hybridoma; In the NIR flow cytometry it carried IRDye 800CW (and DOTA)

binding result [10]: no binding
MFI fold increase relative to PE-conjugated secondary antibody alone [11]: 3.9 fold
B5: anti-EpCAM monoclonal antibody 7 (antibody, V domains shown)
VH: QVQLQQSGPELEKPGGSVKISCKASGYSFTGYNMNWVKQSNGKSLEWIGNIDPYNGGSGFDQKFKGKATLTVDTSSSTAYMHLKSLTSEDSAVYYCAREYGSNFDYWGQGTTLTVSS
VL: DIQMTQSTSSLSASLGDRVTISCRASQDIGTYLNWYQQQADGTFKLLIYYTSRLHSGIPSRFSGSGSGTDFSLTISNLGQEDIATYFCQQGNTLPWTFGGGTKLEIK
notes: In-house mouse IgG1 from hybridoma; IRDye 800CW (and DOTA) labeled in the NIR flow cytometry; also called mAb 7

The remaining lines, values behind:

Molecule: control scFv with no affinity to EpCAM (displayed on E. coli)
MFI [2]: 13 MFI

Molecule: Veridex anti-EpCAM mAb VU-1D9 (antibody)
MFI [3]: 38
MFI [4]: 106
MFI [5]: 321

Molecule: commercial IgG2b isotype control mAb (BD Pharmingen) (antibody)
Biological Activity, % (percentage of PC3 cells stained) [1]: 0.7%
MFI [1]: 149 MFI units

B1: Fab fragment of mAb 153 (Fab, V domains shown)
VH: QVQLQQSGAELVKPGTSVKLSCKASGYNFTSYWINWVKLRPGQGLEWIGDIYPGSGNSHYNEKFKSKATLTVDTSSSTAYMQLSSLASGDSALYYCARNYYGSSPFPMDYWGQGTSVTVSS
VL: DIVMTQSPSSLIVTAGEKVTMSCKSSQSLLNSGNQKNYLTWYQQKPGQPPKLLIYWASTRESGVPDRFTGSGSGTDFTLTLNSAQAEDLAVYYCQNDYTYPLTFGAGTKLEIK
Kd [6]: 0.53 nM
koff [6]: 0.00012 s⁻¹
kon [6]: 220000 M⁻¹ s⁻¹
Kd [7]: 0.54 nM
fold increase in affinity above mAb 9601 [8]: 28 fold

B2: anti-EpCAM scFv 153 (scFv, V domains shown)
VH: QVQLQQSGAELVKPGTSVKLSCKASGYNFTSYWINWVKLRPGQGLEWIGDIYPGSGNSHYNEKFKSKATLTVDTSSSTAYMQLSSLASGDSALYYCARNYYGSSPFPMDYWGQGTSVTVSS
VL: DIVMTQSPSSLIVTAGEKVTMSCKSSQSLLNSGNQKNYLTWYQQKPGQPPKLLIYWASTRESGVPDRFTGSGSGTDFTLTLNSAQAEDLAVYYCQNDYTYPLTFGAGTKLEIK
Kd [9]: 0.21 nM

B4: anti-EpCAM scFv 7 (scFv, V domains shown, not shown: small tags and cut ends)
VH: QVQLQQSGPELEKPGGSVKISCKASGYSFTGYNMNWVKQSNGKSLEWIGNIDPYNGGSGFDQKFKGKATLTVDTSSSTAYMHLKSLTSEDSAVYYCAREYGSNFDYWGQGTTLTVSS
VL: DIQMTQSTSSLSASLGDRVTISCRASQDIGTYLNWYQQQADGTFKLLIYYTSRLHSGIPSRFSGSGSGTDFSLTISNLGQEDIATYFCQQGNTLPWTFGGGTKLEIK
modifications: linker not given
Kd [12]: 4.14 nM
MFI [2]: 170 MFI
MFI [13]: 380 MFI

B6: Fab fragment of mAb 7 (Fab, V domains shown)
VH: QVQLQQSGPELEKPGGSVKISCKASGYSFTGYNMNWVKQSNGKSLEWIGNIDPYNGGSGFDQKFKGKATLTVDTSSSTAYMHLKSLTSEDSAVYYCAREYGSNFDYWGQGTTLTVSS
VL: DIQMTQSTSSLSASLGDRVTISCRASQDIGTYLNWYQQQADGTFKLLIYYTSRLHSGIPSRFSGSGSGTDFSLTISNLGQEDIATYFCQQGNTLPWTFGGGTKLEIK
notes: Fab made by ficin digestion of the mouse IgG1 mAb 7; also called 7 Fab; mAb 7 Fab fragment
Kd [6]: 2.3 nM
koff [6]: 0.00099 s⁻¹
kon [6]: 430000 M⁻¹ s⁻¹
fold increase in affinity above mAb 9601 [8]: 7 fold
